B1: M29-D09 (Fab, V domains shown)
VH: EVQLLESGGGLVQPGGSLRLSCAASGFTFSWYTMVWVRQAPGKGLEWVSYIYPSGGATFYADSVKGRFTISRDNSKNTLYLQMNSLRAEDTAVYYCAMGSYDYIWGFYSDHWGQGTLVTVSS
VL: QSALTQPPTVSVSPGQTARITCSGNKLGDKYVAWYQQKPGQSPMLVIYQDTKRPSRVSERFSGSNSANTATLSISGTQALDEADYYCQAWDSSIVIFGGGTRLTVL
notes: also called 559A-M29-D09 (sFab); 559A-M0029-D09
B2: X115-F02 (Fab, V domains shown)
VH: EVQLLESGGGLVQPGGSLRLSCAASGFTFSHYIMMWVRQAPGKGLEWVSGIYSSGGITVYADSVKGRFTISRDNSKNTLYLQMNSLRAEDTAVYYCAYRRIGVPRRDEFDIWGQGTMVTVSS
VL: DIQMTQSPSTLSASVGDRVTITCRASQSISSWLAWYQQKPGKAPKLLIYKASTLESGVPSRFSGSGSGTEFTLTISSLQPDDFATYYCQQYNTYWTFGQGTKVEIK
notes: also called 559A-X115-F02; 559A-X0115-F02
B3: X115-G04 (antibody, V domains shown)
VH: B2 VH with I101T
VL: B2 VL
notes: also called 559A-X115-G04; 559A-X0115-G04
B4: X115-D01 (antibody, V domains shown)
VH: EVQLLESGGGLVQPGGSLRLSCAASGFTFSIYSMHWVRQAPGKGLEWVSSIYPSRGMTWYADSVKGRFTISRDNSKNTLYLQMNSLRAEDTAVYYCAYRRTGIPRRDAFDIWGQGTMVTVSS
VL: B2 VL
notes: also called 559A-X115-D01; 559A-X0115-D01
B5: X115-A03 (antibody, V domains shown)
VH: B2 VH with Y98W, E108S, I111M
VL: B2 VL
notes: also called 559A-X115-A03; 559A-X0115-A03
B6: M145-D11 (Fab, V domains shown)
VH: EVQLLESGGGLVQPGGSLRLSCAASGFTFSHYRMSWVRQAPGKGLEWVSSIYPSGGRTVYADSVKGRFTISRDNSKNTLYLQMNSLRAEDTAVYYCAKDKFEWRLLFRGIGNDAFDIWGQGTMVTVSS
VL: QSVLTQPPSVSVSPGQTASITCSGDKLGDKYTSWYQQRPGQSPVLVIYQDIKRPSGIPERFSGSNSGNTATLTISGTQAMDEADYYCQAWDSPNARVFGSGTKVTVL
notes: also called 559A-M145-D11 (sFab); 559A-M0145-D11
B7: M35-G04 (Fab, V domains shown)
VH: EVQLLESGGGLVQPGGSLRLSCAASGFTFSYYHMSWVRQAPGKGLEWVSVISPSGGSTKYADSVKGRFTISRDNSKNTLYLQMNSLRAEDTAVYYCARGGSSDYAWGSYRRPYYFDYWGQGTLVTVSS
VL: DIQMTQSPATLSLSPGERATLSCRASQSVSSYLAWYQQKPGQAPRLLIYDASNRATGIPARFSGSGSGTDFTLTISSLEPEDFAVYYCQQRSNWPRGFTFGPGTKVDIK
notes: also called 559A-M35-G04; 559A-M0035-G04
B8: M6-D09 (Fab, V domains shown)
VH: EVQLLESGGGLVQPGGSLRLSCAASGFTFSFYYMVWVRQAPGKGLEWVSVIYPSGGITVYADSVKGRFTISRDNSKNTLYLQMNSLRAEDTAVYYCARDKWAVMPPYYYYAMDVWGQGTTVTVSS
VL: DIQMTQSPSSLSASVGDRVTITCRASQSIRNYLNWYQQKPGKAPNLLIYAASTLQSGVPARFSGSGSGTDFTLTISSLQPEDFATYYCQQLSGYPHTFGQGTKLEIK
notes: also called M06-D09; 559A-M06-D09
B9: X101-A01 (antibody, V domains shown)
VH: EVQLLESGGGLVQPGGSLRLSCAASGFTFSHYLMTWVRQAPGKGLEWVSYISPSGGHTIYADSVKGRFTISRDNSKNTLYLQMNSLRAEDTAVYYCARVARGIAARSRTSYFDYWGQGTLVTVSS
VL: EIVLTQSPGTLSLSPGERATLSCRTSQFVNSNYLAWYQQKPGQAPRLLIYGASSRATGIPDRFSGSGSGTDFTLTISRLEPEDFAVYYCQQSSRTPWTFGQGTKVEIK
notes: also called 559A-X0101-A01
B10: X115-B07 (antibody, V domains shown)
VH: B9 VH with R98M, A100G, R101Q, A104R, A105G, D113A, Y114Q
VL: B9 VL
notes: also called 559A-X115-B07; 559A-X0115-B07
B11: M28-D02 (Fab, V domains shown)
VH: EVQLLESGGGLVQPGGSLRLSCAASGFTFSWYPMQWVRQAPGKGLEWVSYIYPSGGGTDYADSVKGRFTISRDNSKNTLYLQMNSLRAEDTATYYCATSSGWLGDAFDIWGQGTMVTVSS
VL: DIQMTQSPSSLSASEGDMVTITCRTSRRIGTYLNWYQQKPGKAPKLLIYGASSLQSGVPSRFSGSGSGTDFTLTVSSLQPEDVGTYYCQQSFSSPWTFGPGTKVEIK

Substitutions are numbered along the chain they refer to.

Sequence of pKal catalytic domain Mutant 4 (P03952 other isoform, or with tags, fused parts or gaps mutant): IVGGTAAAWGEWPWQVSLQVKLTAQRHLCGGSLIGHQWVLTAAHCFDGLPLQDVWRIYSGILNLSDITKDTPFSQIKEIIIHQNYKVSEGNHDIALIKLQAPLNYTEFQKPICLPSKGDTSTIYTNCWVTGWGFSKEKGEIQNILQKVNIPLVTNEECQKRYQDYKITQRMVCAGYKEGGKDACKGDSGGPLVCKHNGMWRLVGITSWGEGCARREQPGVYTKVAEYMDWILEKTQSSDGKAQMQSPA

The first experiment has as its target pKal catalytic domain Mutant 4 (human, UniProt P03952 391-638). The experiment is described as follows: Ki,app, enzyme inhibition.
B1 yielded a Ki of 0.39 nM.
With B2, the Ki amounted to 0.1 nM.
B3 returned a Ki of 0.3 nM.
Still for that read-out and setting: the figure for B4 is 0.12 nM; for B5 it is 0.13 nM; for B6 it is 0.21 nM.
Take B7: the Ki came to 0.8 nM.
B8: the Ki was 2.9 nM.
B9: the Ki was 0.25 nM.
Turning to B10, the Ki turned out to be 0.14 nM.

The target in the next experiment is T1, pKal catalytic domain Mutant 1 (human, UniProt P03952 391-638, limits assumed).
T1 construct: catalytic domain with His tag from Pichia pastoris
T1 sequence (P03952 other isoform, or with tags, fused parts or gaps mutant limits assumed): as the sequence (P03952 other isoform, or with tags, fused parts or gaps mutant) above, with A6N, A7S, A8S, S88A, N91A, S135A, K136A counted along it
In words: Ki,app, enzyme inhibition.
The molecule B1 came in with a Ki of 0.27 nM.
B2 had a Ki of 0.14 nM.
Same read-out and setting: next, B3: 0.4 nM.
For the molecule B4, the Ki turned out to be 0.26 nM.
Molecule B5 returned a Ki of 0.23 nM.
Take B6: the Ki is 0.23 nM.
B7: the Ki stood at 0.09 nM.
On the same count and under the same terms, the figure for B8 is 3.4 nM; for B9 it is 14 nM; for B10 it is 4.7 nM.

For another experiment, the target named is T2, pKal catalytic domain Mutant 2 (human, UniProt P03952 391-638, limits assumed).
T2 construct: catalytic domain with His tag from Pichia pastoris
T2 sequence (P03952 other isoform, or with tags, fused parts or gaps mutant limits assumed): as the sequence (P03952 other isoform, or with tags, fused parts or gaps mutant) above, with A6N, A7S, A8S, R161A, Q163A, Y165A, T168A, R170A counted along it
In words: Ki,app, enzyme inhibition.
With B1, the Ki was 0.34 nM.
In turn, B2 returned a Ki of 5.9 nM.
For the molecule B3, the Ki is 2.2 nM.
With B4, the Ki was 2.5 nM.
Still for that read-out and setting: next, B5: 3.7 nM; B6: 0.1 nM.
Take B7: the Ki was 1.1 nM.
Turning to B8, the Ki stood at 13.5 nM.
In turn, B9 displayed a Ki of 20 nM.
For the molecule B10, the Ki amounted to 47 nM.

Another experiment deals with T3, human plasma kallikrein (active form) (human, UniProt P03952 20-390; P03952 391-638).
T3 construct: two disulfide linked chains; biotinylated in the ELISA; also called pKal; hpKal
T3 sequence (P03952 20-390, chain 1 of 2): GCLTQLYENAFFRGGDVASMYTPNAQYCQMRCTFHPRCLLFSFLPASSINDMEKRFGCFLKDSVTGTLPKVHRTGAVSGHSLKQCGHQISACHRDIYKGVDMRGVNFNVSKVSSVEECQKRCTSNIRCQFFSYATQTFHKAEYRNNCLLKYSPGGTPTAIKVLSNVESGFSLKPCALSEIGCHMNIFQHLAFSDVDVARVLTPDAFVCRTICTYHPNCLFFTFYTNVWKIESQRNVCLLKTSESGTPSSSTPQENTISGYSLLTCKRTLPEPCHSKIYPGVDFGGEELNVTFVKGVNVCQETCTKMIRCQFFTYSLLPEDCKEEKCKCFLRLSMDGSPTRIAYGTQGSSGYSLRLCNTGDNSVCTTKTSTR
T3 sequence (P03952 391-638, chain 2 of 2): as the sequence (P03952 other isoform, or with tags, fused parts or gaps mutant) above, with A6N, A7S, A8S counted along it
The experiment is described as follows: ELISA, biotinylated pKal / streptavidin background. An excerpt:
Abbreviations used: "T/B" is the ELISA signal obtained using of the "target" (biotinylated plasma kallikrein) divided by the ELISA signal of the "background" (streptavidin); both of which were coated on microtiter plates. "nd" is not determined. The symbol "q" refers to the amber suppressible stop codon (TAG), which is translated as glutamine (Q) in strains of E. coli such as the TG1 cells that were used to express the Fab fragments.
Background: ELISA stands for enzyme-linked immunosorbent assay.
As for B11, the “ELISA (T/B)” value turned out to be 3.7 T/B.

These data come from patent publication US8816055 (DYAX, dated 2014).
